Data taken from patent US20200079833A1 (AstraZeneca / MedImmune, published 2020).
Starred links: 1 amine or outer side, 2 acyl side, 3 side chain; linkers in the order of their positions; H or OH if unused. Non-standard residues stand in square brackets, D forms with d. Groups on a side chain read outwards from the residue. Primed or numbered codes have the meaning given here. No end group written: not given here. *: point of attachment. Dodecylbenzoate = dodecylbenzoyl lipid group; γGlu = O=C(O)[C@H](CCC(=O)[*:2])N[*:1]; Stearoyl = CCCCCCCCCCCCCCCCCC(=O)*; αMeF = C[C@](N)(Cc1ccccc1)C(=O)O; αMeK = C[C@](N)(CCCCN)C(=O)O; Lauroyl = CCCCCCCCCCCC(=O)*; αMeS = C[C@](N)(CO)C(=O)O; PEG2′ = not defined here; Aib = CC(C)(N)C(=O)O; Ahx = NCCCCCC(=O)O

T1: glucose-dependent insulinotropic peptide (gastric inhibitory polypeptide) receptor (GIPR) (human, UniProt P48546 22-466)
T1 sequence (looked up): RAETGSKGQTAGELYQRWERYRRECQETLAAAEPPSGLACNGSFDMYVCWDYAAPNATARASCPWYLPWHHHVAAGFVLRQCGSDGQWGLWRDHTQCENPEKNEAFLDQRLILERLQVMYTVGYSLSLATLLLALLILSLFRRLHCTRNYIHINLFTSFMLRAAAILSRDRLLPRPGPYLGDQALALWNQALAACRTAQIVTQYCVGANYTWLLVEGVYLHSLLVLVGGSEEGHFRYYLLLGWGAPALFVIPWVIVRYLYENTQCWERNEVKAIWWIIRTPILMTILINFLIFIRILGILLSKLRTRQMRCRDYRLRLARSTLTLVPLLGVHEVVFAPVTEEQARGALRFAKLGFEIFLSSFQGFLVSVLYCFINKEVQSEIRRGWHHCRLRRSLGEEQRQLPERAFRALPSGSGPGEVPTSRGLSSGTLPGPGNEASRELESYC

T2: GLP-1R (INS1e assay) (UniProt P32301 22-463, limits assumed)
T2 sequence (looked up): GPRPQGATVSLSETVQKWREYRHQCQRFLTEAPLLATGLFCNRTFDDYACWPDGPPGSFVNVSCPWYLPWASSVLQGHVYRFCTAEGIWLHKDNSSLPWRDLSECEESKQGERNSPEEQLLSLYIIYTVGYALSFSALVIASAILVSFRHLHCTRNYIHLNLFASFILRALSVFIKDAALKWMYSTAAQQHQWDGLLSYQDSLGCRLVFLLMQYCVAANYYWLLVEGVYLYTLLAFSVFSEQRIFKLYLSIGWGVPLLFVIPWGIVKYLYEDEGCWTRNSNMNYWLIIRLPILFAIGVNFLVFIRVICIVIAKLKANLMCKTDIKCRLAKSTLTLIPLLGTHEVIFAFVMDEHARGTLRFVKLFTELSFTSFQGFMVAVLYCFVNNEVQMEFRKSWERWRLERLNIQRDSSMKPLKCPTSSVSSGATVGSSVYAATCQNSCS

B1: SEQ ID NO 146 (peptide)
peptide: H[Aib]EGS[αMeF]TSDV[αMeS]S[αMeF]LEGEAAK([γGlu-Stearoyl])E[αMeF]IA[αMeF]VV[αMeK]GG-NH2
modifications: N-terminus assumed
SMILES: CCCCCCCCCCCCCCCCCC(=O)N[C@@H](CCC(=O)NCCCC[C@H](NC(=O)[C@H](C)NC(=O)[C@H](C)NC(=O)[C@H](CCC(=O)O)NC(=O)CNC(=O)[C@H](CCC(=O)O)NC(=O)[C@H](CC(C)C)NC(=O)[C@](C)(Cc1ccccc1)NC(=O)[C@H](CO)NC(=O)[C@](C)(CO)NC(=O)[C@@H](NC(=O)[C@H](CC(=O)O)NC(=O)[C@H](CO)NC(=O)[C@@H](NC(=O)[C@](C)(Cc1ccccc1)NC(=O)[C@H](CO)NC(=O)CNC(=O)[C@H](CCC(=O)O)NC(=O)C(C)(C)NC(=O)[C@@H](N)Cc1c[nH]cn1)[C@@H](C)O)C(C)C)C(=O)N[C@@H](CCC(=O)O)C(=O)N[C@@](C)(Cc1ccccc1)C(=O)N[C@H](C(=O)N[C@@H](C)C(=O)N[C@@](C)(Cc1ccccc1)C(=O)N[C@H](C(=O)N[C@H](C(=O)N[C@@](C)(CCCCN)C(=O)NCC(=O)NCC(N)=O)C(C)C)C(C)C)[C@@H](C)CC)C(=O)O
B2: SEQ ID NO 184 (peptide)
peptide: H[Aib]EGS[αMeF]TSDV[αMeS]S[αMeF]LEGEAA[αMeK]E[αMeF]IA[αMeF]VVK([γGlu-γGlu-γGlu-Stearoyl])GG-NH2
modifications: N-terminus assumed
SMILES: CCCCCCCCCCCCCCCCCC(=O)N[C@@H](CCC(=O)N[C@@H](CCC(=O)N[C@@H](CCC(=O)NCCCC[C@H](NC(=O)[C@@H](NC(=O)[C@@H](NC(=O)[C@](C)(Cc1ccccc1)NC(=O)[C@H](C)NC(=O)[C@@H](NC(=O)[C@](C)(Cc1ccccc1)NC(=O)[C@H](CCC(=O)O)NC(=O)[C@](C)(CCCCN)NC(=O)[C@H](C)NC(=O)[C@H](C)NC(=O)[C@H](CCC(=O)O)NC(=O)CNC(=O)[C@H](CCC(=O)O)NC(=O)[C@H](CC(C)C)NC(=O)[C@](C)(Cc1ccccc1)NC(=O)[C@H](CO)NC(=O)[C@](C)(CO)NC(=O)[C@@H](NC(=O)[C@H](CC(=O)O)NC(=O)[C@H](CO)NC(=O)[C@@H](NC(=O)[C@](C)(Cc1ccccc1)NC(=O)[C@H](CO)NC(=O)CNC(=O)[C@H](CCC(=O)O)NC(=O)C(C)(C)NC(=O)[C@@H](N)Cc1c[nH]cn1)[C@@H](C)O)C(C)C)[C@@H](C)CC)C(C)C)C(C)C)C(=O)NCC(=O)NCC(N)=O)C(=O)O)C(=O)O)C(=O)O

Target: GLP-1 receptor (GLP-1R) (human, UniProt P43220 24-463)
Test: cell-based or functional assay

Binder | cAMP Mean pM GLP-1R [pM] | cAMP Primary assay EC50 GLP-1R n1 [nM] | cAMP Primary assay EC50 GLP-1R n2 [nM]
B1 | 69 | 0.096 | 0.042

Target: glucagon receptor (GCGR) (human, UniProt P47871 26-477)
Sequence (P47871 26-477): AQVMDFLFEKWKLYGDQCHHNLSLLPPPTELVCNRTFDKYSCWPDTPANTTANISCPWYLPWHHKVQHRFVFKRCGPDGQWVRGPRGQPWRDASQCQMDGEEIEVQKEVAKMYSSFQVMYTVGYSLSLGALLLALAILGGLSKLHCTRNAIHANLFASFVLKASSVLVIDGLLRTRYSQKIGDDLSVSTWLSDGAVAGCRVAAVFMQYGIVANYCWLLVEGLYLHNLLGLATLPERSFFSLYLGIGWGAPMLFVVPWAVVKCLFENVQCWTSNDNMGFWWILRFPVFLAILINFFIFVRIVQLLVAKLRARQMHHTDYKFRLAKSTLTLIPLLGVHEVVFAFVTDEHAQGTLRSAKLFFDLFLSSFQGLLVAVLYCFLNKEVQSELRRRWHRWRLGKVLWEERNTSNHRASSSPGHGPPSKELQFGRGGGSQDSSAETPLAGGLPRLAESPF
Test: cell-based or functional assay

Binder | cAMP Primary assay EC50 Gluc-R [nM] | cAMP Primary assay EC50 Gluc-R (2nd) [nM]
B1 | 28 | 28

Target: T1, glucose-dependent insulinotropic …
Test: cell-based or functional assay

Binder | cAMP Primary assay EC50 GIP-R [nM] | cAMP Primary assay EC50 GIP-R (2nd) [nM]
B1 | 28 | 28

Target: T2, GLP-1R (INS1e assay)
Test: cell-based or functional assay

Binder | INS1e assay EC50 GLP-1 R n1 [nM] | INS1e assay EC50 GLP-1 R n2 [nM] | INS1e assay EC50 Mean pM GLP-1R [pM]
H[Aib]EGS[αMeF]TSDV[αMeS]S[αMeF]LEGEAA[αMeK]E[αMeF]IA[αMeF]VVK([PEG2′-PEG2′-PEG2′-Stearoyl])GG-NH2 [SEQ ID NO 190] | 0.0397 | 0.0485 | 44.1
H[Aib]EGS[αMeF]TSDV[αMeS]S[αMeF]LEGEAA[αMeK]E[αMeF]IA[αMeF]VVK([PEG2′-PEG2′-PEG2′-Stearoyl])GG-NH2 [SEQ ID NO 199] | 0.787 | 2.13 | 1460
B2 | 0.351 | 0.501 | 426
H[Aib]EGS[αMeF]TSDV[αMeS]S[αMeF]LEGEAA[αMeK]E[αMeF]IA[αMeF]VVK([Ahx-Ahx-Dodecylbenzoate])GG-NH2 [SEQ ID NO 177] | 0.266 | 0.755 | 510
H[Aib]EGS[αMeF]TSDV[αMeS]S[αMeF]LEGEAA[αMeK]E[αMeF]IA[αMeF]VVK([PEG2′-PEG2′-Lauroyl])GG-NH2 [SEQ ID NO 171] | 0.0817 | 0.175 | 128
H[Aib]EGS[αMeF]TSDV[αMeS]S[αMeF]LEGEAA[αMeK]E[αMeF]IA[αMeF]VVK([PEG2′-PEG2′-PEG2′-Dodecylbenzoate])GG-NH2 [SEQ ID NO 181] | 0.0453 | 0.114 | 79.7
H[Aib]EGS[αMeF]TSDV[αMeS]S[αMeF]LEGEAA[αMeK]E[αMeF]IA[αMeF]VVK([PEG2′-Lauroyl])GG-NH2 [SEQ ID NO 170] | 0.548 | 0.376 | 462
H[Aib]EGS[αMeF]TSDV[αMeS]S[αMeF]LEGEAA[αMeK]E[αMeF]IA[αMeF]VVK([PEG2′-PEG2′-Stearoyl])GG-NH2 [SEQ ID NO 189] | 0.114 | 0.173 | 144
H[Aib]EGS[αMeF]TSDV[αMeS]S[αMeF]LEGEAA[αMeK]E[αMeF]IA[αMeF]VVK([Ahx-Ahx-Ahx-Dodecylbenzoate])GG-NH2 [SEQ ID NO 178] | 0.31 | 0.258 | 284
H[Aib]EGS[αMeF]TSDV[αMeS]S[αMeF]LEGEAA[αMeK]E[αMeF]IA[αMeF]VVK([PEG2′-PEG2′-Stearoyl])GG-NH2 [SEQ ID NO 198] | 1.38 | 0.89 | 1140
H[Aib]EGS[αMeF]TSDV[αMeS]S[αMeF]LEGEAA[αMeK]E[αMeF]IA[αMeF]VVK([PEG2′-Dodecylbenzoate])GG-NH2 [SEQ ID NO 179] | 0.336 | 0.345 | 340
H[Aib]EGS[αMeF]TSDV[αMeS]S[αMeF]LEGEAA[αMeK]E[αMeF]IA[αMeF]VVK([PEG2′-PEG2′-Dodecylbenzoate])GG-NH2 [SEQ ID NO 180] | 0.0678 | 0.0506 | 59.2
H[Aib]EGS[αMeF]TSDV[αMeS]S[αMeF]LEGEAA[αMeK]E[αMeF]IA[αMeF]VVK([PEG2′-PEG2′-PEG2′-Lauroyl])GG-NH2 [SEQ ID NO 172] | 0.0396 | 0.028 | 33.8
